Paper PMC10415141

Columns and labels:
MCM8 WB;MCM9 680 WB = MCM8 WB;MCM9 680 WB (Homo sapiens;Homo sapiens, UniProt Q9UJA3;Q9NXL9 1-840;1-680, E519Q|E415Q); assay: S1 nuclease protection
MCM8;MCM9 680 = MCM8;MCM9 680 (Homo sapiens;Homo sapiens, UniProt Q9UJA3;Q9NXL9 1-840;1-680, |); assay: S1 nuclease protection
Chain of MCM8;MCM9 680 (Q9UJA3 whole entry, chain 1 of 2): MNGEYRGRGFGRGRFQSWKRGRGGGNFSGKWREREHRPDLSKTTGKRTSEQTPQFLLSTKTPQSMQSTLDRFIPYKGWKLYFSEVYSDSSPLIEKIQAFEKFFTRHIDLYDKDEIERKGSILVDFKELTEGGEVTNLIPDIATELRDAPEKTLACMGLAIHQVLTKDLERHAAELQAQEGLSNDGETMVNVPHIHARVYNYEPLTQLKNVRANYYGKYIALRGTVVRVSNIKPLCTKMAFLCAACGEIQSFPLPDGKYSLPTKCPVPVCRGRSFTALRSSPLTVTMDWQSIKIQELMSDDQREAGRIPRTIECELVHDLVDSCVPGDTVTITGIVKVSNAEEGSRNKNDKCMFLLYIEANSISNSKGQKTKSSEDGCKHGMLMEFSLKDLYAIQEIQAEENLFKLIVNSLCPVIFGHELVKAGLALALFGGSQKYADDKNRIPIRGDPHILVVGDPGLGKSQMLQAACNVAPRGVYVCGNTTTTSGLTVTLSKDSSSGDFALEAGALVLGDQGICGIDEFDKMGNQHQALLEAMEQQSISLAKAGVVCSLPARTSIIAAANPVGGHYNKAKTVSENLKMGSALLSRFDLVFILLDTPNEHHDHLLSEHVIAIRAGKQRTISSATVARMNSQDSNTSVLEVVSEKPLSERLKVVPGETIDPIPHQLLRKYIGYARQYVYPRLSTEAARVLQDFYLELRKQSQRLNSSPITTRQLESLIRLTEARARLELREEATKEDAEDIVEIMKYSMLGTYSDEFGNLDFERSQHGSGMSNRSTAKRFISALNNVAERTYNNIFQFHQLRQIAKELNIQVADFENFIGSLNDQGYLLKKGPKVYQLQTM
Chain of MCM8;MCM9 680 (Q9NXL9 1-680, chain 2 of 2): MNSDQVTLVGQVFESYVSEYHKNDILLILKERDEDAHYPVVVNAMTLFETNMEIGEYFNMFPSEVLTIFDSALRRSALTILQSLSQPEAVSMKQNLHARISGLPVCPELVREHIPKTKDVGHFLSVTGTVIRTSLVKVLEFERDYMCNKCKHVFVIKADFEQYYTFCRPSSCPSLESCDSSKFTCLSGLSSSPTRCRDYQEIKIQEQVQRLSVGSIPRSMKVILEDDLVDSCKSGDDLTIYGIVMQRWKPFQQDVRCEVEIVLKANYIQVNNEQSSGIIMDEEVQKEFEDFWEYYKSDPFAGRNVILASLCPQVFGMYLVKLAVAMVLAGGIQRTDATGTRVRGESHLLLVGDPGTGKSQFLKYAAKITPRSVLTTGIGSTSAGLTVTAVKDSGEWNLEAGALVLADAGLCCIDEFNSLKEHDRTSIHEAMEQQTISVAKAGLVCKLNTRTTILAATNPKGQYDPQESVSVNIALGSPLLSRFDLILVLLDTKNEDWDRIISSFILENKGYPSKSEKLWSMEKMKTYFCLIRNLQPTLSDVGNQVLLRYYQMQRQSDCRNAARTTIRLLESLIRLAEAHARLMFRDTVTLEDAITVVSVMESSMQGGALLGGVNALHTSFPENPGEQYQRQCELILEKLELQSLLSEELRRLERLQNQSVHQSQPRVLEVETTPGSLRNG

Chain of MCM8 WB;MCM9 680 WB (Q9UJA3 whole entry E519Q, chain 1 of 2): as the sequence (Q9UJA3 whole entry, chain 1 of 2) above, with E519Q counted along it
Chain of MCM8 WB;MCM9 680 WB (Q9NXL9 1-680 E415Q, chain 2 of 2): as the sequence (Q9NXL9 1-680, chain 2 of 2) above, with E415Q counted along it

B1: 3' long arm fork (DNA228/15Cy3) (mixed)
DNA 1: TTTTTTTTTTGCCGGTCGGGGTGGGTGGGAAGCGTAGGGAGAGGTG
DNA 2: CACCTCTCCCTACGCTTCCCACCCACCCCGACCGGCATCTGCTATGGTACGCTGAGCGAGAGTAGC
- binding result (MCM8 WB;MCM9 680 WB): binds
- binding result (MCM8;MCM9 680): binds
